What was measured:
Assay in all cases: two-hybrid
[1] = molecular target: T1, Gal4(DBD)-Neh6 (mouse, UniProt Q60795 300-380)
T1 sequence (looked up): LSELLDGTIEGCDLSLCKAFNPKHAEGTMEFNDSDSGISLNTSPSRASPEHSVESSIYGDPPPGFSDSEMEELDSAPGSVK

[2] = molecular target: T2, Gal4(DBD)-Neh6^ΔSDSGIS (mouse, UniProt Q60795 300-380, Δ333-338 (called ΔSDSGIS))
T2 sequence (looked up): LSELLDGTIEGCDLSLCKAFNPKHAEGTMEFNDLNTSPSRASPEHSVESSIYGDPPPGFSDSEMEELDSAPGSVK

[3] = molecular target: T3, Gal4(DBD)-Neh6^ΔDSAPGS (mouse, UniProt Q60795 300-380, Δ373-378 (called ΔDSAPGS))
T3 sequence (looked up): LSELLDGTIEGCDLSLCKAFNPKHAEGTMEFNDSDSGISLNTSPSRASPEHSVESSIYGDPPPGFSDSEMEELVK

B1: Gal4(AD)-WD40 (domain or fragment, mouse, UniProt Q3ULA2 303-581, looked up)
chain: SKGVYCLQYDDQKIVSGLRDNTIKIWDKSTLECKRILTGHTGSVLCLQYDERVIITGSSDSTVRVWDVNAGEMLNTLIHHCEAVLHLRFNNGMMVTCSKDRSIAVWDMASPTDITLRRVLVGHRAAVNVVDFDDKYIVSASGDRTIKVWNTSTCEFVRTLNGHKRGIACLQYRDRLVVSGSSDNTIRLWDIECGACLRVLEGHEELVRCIRFDNKRIVSGAYDGKIKVWDLMAALDPRAPAGTLCLRTLVEHSGRVFRLQFDEFQIVSSSHDDTILIWD
fold increase in Gal4-driven luciferase activity over either fusion alone [1]: ~3.2 fold | fold increase in Gal4-driven luciferase activity with GSK-3β^Δ9 co-expressed [1]: 4 fold | fold increase in Gal4-driven luciferase activity over either fusion alone [2]: 1.5 fold | fold increase in Gal4-driven luciferase activity with GSK-3β^Δ9 co-expressed [3]: 3.1 fold

Reference: article PMC3522573 (Oncogene, 2012)
